Reference: publication PMC7480387

Key:
[1] = system: T1, GST-SfbR (Streptomyces filipinensis DSM 40112), ORF:e6e403b8; assay: EMSA; conditions: EMSA: 100 mM HEPES pH 7.6, 10 mM KCl, 5 mM MgCl2, 1 mM DTT, 1% Tween 20, 7.8 mM glutathione, 40 ug/ml poly[d(I-C)], 5% glycerol, 30 C, 10 min; 0.005 ng/ul …
T1 sequence: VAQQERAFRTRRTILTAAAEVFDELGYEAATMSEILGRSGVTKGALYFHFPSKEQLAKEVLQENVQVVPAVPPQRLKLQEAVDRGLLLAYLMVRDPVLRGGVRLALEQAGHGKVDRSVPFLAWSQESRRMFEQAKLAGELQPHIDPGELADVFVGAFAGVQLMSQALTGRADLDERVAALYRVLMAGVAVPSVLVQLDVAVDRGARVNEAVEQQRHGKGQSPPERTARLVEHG

[2] = system: T2, GST-SfbR2 (Streptomyces filipinensis DSM 40112), ORF:2e1db1fa; assay: EMSA; conditions: EMSA: 100 mM HEPES pH 7.6, 10 mM KCl, 5 mM MgCl2, 1 mM DTT, 1% Tween 20, 7.8 mM glutathione, 40 ug/ml poly[d(I-C)], 5% glycerol, 30 C, 10 min; 0.005 ng/ul …
T2 sequence: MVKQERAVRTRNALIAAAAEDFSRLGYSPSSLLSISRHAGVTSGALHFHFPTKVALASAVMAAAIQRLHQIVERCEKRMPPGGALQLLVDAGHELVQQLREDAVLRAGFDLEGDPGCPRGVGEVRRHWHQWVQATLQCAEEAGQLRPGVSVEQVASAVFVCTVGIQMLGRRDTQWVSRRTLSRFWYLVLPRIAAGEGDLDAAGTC

GCGTGCTGCCCAGCCGTGCTGCAAAGCCGCCGAGTACTTCGATGTCCATCTCTCTCCCCCAGATCCGTACGCGCGGGGCCCGTCAGGCACGCGCGGGGTGTGGCGTAGCTCAGGGAACTCGGGACTTGCTTGACCACCAAATTAAACAGCATGGCCGGTTCTTTCTCCAGTGGAACCCGAGGATCCGTGCCGGCGCCGCCCGCGGCCCGCGCCGCGGGGCGCGGGTCCGCGGTCGGCGTCCTCGCAGGTCTGTCCGTGTGCCGGGGTGGTGTGC (double strand) [sfb7p]
binding [1]: binds
binding [2]: binds
